Target: T1, purified full-length human AR (Abcam ab82609) (human, UniProt P10275 1-920)
T1 construct: androgen receptor, human, full length; also called Purified AR; AR polypeptide (ligand)
T1 sequence (looked up): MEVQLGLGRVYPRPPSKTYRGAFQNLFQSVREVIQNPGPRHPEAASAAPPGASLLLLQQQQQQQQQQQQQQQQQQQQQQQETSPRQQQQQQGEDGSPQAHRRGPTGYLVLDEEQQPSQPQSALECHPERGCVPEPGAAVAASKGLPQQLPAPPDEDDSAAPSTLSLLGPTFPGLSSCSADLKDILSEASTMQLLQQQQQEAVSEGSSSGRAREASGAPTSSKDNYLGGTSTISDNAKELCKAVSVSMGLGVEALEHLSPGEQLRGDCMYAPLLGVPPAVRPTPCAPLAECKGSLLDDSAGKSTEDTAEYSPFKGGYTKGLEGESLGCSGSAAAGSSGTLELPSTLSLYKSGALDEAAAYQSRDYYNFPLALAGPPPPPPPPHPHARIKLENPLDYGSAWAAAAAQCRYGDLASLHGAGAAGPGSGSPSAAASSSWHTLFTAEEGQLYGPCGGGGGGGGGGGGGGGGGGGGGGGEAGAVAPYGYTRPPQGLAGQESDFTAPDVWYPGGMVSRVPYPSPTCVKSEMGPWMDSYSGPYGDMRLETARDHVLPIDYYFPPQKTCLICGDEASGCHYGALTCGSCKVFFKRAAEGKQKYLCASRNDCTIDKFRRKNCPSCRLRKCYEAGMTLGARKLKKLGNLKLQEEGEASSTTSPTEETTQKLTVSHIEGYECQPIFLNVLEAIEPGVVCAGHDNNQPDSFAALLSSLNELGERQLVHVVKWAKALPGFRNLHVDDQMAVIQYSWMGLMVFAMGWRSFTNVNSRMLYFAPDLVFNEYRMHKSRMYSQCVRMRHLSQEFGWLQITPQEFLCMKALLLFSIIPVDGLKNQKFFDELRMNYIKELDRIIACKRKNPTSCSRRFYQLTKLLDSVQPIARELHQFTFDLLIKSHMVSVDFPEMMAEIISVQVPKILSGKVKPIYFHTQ
Assay: SPR; BIAcore 3000; AR immobilised on a CM5 chip by amine coupling; His-ELK1 (0-160 nM) or mutant ELK1 (100 nM) as analyte; HBS-N buffer; 1:1 Langmuir model; Kd = koff/kon
Details: both partners purified

B1: His-tagged ELK1 (natural protein, human, UniProt P19419 1-428, looked up)
chain: MDPSVTLWQFLLQLLREQGNGHIISWTSRDGGEFKLVDAEEVARLWGLRKNKTNMNYDKLSRALRYYYDKNIIRKVSGQKFVYKFVSYPEVAGCSTEDCPPQPEVSVTSTMPNVAPAAIHAAPGDTVSGKPGTPKGAGMAGPGGLARSSRNEYMRSGLYSTFTIQSLQPQPPPHPRPAVVLPSAAPAGAAAPPSGSRSTSPSPLEACLEAEEAGLPLQVILTPPEAPNLKSEELNVEPGLGRALPPEVKVEGPKEELEVAGERGFVPETTKAEPEVPPQEGVPARLPAVVMDTAGQAGGHAASSPEISQPQKGRKPRDLELPLSPSLLGGPGPERTPGSGSGSGLQAPGPALTPSLLPTHTLTPVLLTPSSLPPSIHFWSTLSPIAPRSPAKLSFQFPSSGSAQVHIPSISVDGLSTPVVLSPGPQKP
notes: ELK1, recombinant; Construct details are in the supplemental material; also called purified ELK1
**Q.** Which Kd does the source give for B1 here?
**A.** The Kd was 19 nM.

— article PMC5207070, “The Amino-terminal Domain of the Androgen Receptor Co-opts Extracellular Signal-regulated Kinase (ERK) Docking Sites in ELK1 Protein to Induce Sustained Gene Activation That Supports Prostate Cancer Cell Growth*^([image sbox.jpg])” (The Journal of Biological Chemistry, 2016)
